For orientation: EC50 means the concentration that produces a half-maximal response. Read a low EC50 as a more potent agent. For orientation: Kd means the concentration at which binding is half-saturated. High values mean lower affinity, low ones higher affinity.

For assay [1], the target named is human CTLA-4 (human). The assay is described as follows: FACS, pH 7.3. For orientation: Flow cytometry measures light scatter and fluorescence of single cells or particles in a stream.
Assay [2] deals with human CTLA-4 (human). Nature of the assay: FACS, pH 6.0.
The target of assay [3] is human CTLA-4 (human). Nature of the assay: SPR, pH 6.0, 37C.
Assay [4] concerns the target human CTLA-4 (human). Nature of the assay: SPR, pH 6.0, 37C. The source holds these as a separate data set. (SPR reads the build-up and loss of mass on a sensor chip optically.)
The target of assay [5] is human CTLA-4 (human). The assay is described as follows: SPR, pH 6.0, 37C. This is another data set of the same source.
Assay [6] deals with human CTLA-4 (human). Nature of the assay: SPR, pH 7.4, 37C.
Assay [7] concerns the target human CTLA-4 (human). Nature of the assay: SPR, pH 7.4, 37C. The source holds these as a separate data set.
The target of assay [8] is human CTLA-4 (human). The assay is described as follows: SPR, pH 7.4, 37C. This is another data set of the same source.
The target in assay [9] is human CTLA-4 (human). Nature of the assay: FACS, pH 6.2, bivalent.
For assay [10], the target named is human CTLA-4 (human). Nature of the assay: FACS, pH 6.7, bivalent.
Assay [11] addresses human CTLA-4 (human). Nature of the assay: FACS, pH 7.2, bivalent.

Substitutions are numbered along the chain they refer to. Several values for one entry are separate records, joined by “and”; a condition that tells them apart may be missing. Equal entries are not always repeated.

Chain of human CTLA-4 (human) (chain, as listed by the source): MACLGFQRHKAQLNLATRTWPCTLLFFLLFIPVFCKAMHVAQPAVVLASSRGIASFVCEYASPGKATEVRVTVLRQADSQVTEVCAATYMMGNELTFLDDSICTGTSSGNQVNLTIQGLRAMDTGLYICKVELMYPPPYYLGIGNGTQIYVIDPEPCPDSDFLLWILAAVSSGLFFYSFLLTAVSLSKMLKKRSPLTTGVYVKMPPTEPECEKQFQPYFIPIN

B1: ipilimumab (ipi) Fab (antibody, V domains shown)
VH: QVQLVESGGGVVQPGRSLRLSCAASGFTFSSYTMHWVRQAPGKGLEWVTFISYDGNNKYYADSVKGRFTISRDNSKNTLYLQMNSLRAEDTAIYYCARTGWLGPFDYWGQGTLVTVSS
VL: not shown
As for B1, the results for the EC50 in the assay with human CTLA-4 [1] and with human CTLA-4 [2] were 5.4 nM and 7.1 nM, respectively. The Kd with human CTLA-4 [3] is 21 nM; in the assay with human CTLA-4 [4] it was 21 nM; with human CTLA-4 [5], 46 nM; in the assay with human CTLA-4 [6], 47 nM; with human CTLA-4 [7], 22 nM; with human CTLA-4 [8] it was 22 nM and 14 nM.

B2: ipi.106 IgG1 (antibody, V domains shown)
VH: B1 VH with S31H, N56H, T99H
VL: EIVLTQSPGTLSLSPGERATLSCRASQEVGESELAWYQQKPGQAPRLLIYGAFSRATGIPDRFSGSGSGTDFTLTISRLEPEDFAVYYCQQYGSSPWTFGQGTKVEIKR
Regarding B2, the EC50 in the assay with human CTLA-4 [9] stood at 3.15 nM; in the assay with human CTLA-4 [10] it was 4.37 nM; with human CTLA-4 [11], 11.5 nM.

B3: ipi.64 IgG1 (antibody, V domains shown)
VH: B1 VH with S31H
VL: not shown
Consider B3, for which the EC50 was found to be 2.93 nM with human CTLA-4 [9], 2.97 nM with human CTLA-4 [10] and 3.1 nM with human CTLA-4 [11].

B4: ipi.64 Fab (antibody, V domains shown)
VH: B1 VH with S31H
VL: not shown
For B4, the EC50 in the assay with human CTLA-4 [1] is 140 nM; in the assay with human CTLA-4 [2] it was 3.3 nM.

B5: ipilimumab IgG1 (antibody, V domains shown)
VH: B1 VH
VL: not shown
With B5, the concentration for a half-maximal effect (EC50) is 2.76 nM with human CTLA-4 [9], 2.35 nM in the assay with human CTLA-4 [10] and 1.84 nM with human CTLA-4 [11].

B6: ipi.100 IgG1 (antibody, V domains shown)
VH: B1 VH with S31H
VL: not shown
Turning to B6, the EC50 with human CTLA-4 [9] was found to be 2.94 nM; with human CTLA-4 [10] it was 2.85 nM; in the assay with human CTLA-4 [11], 2.8 nM.

B7: ipi.105 IgG1 (antibody, V domains shown)
VH: B1 VH with S31H, N56H
VL: B2 VL
As for B7, the EC50 worked out at 2.6 nM with human CTLA-4 [9], 3.45 nM with human CTLA-4 [10] and 3.94 nM with human CTLA-4 [11].

B8: ipi.101 IgG1 (antibody, V domains shown)
VH: B1 VH with S31H, N56H
VL: not shown
For B8, the results for the concentration giving a half-maximal response (EC50) in the assay with human CTLA-4 [9], in the assay with human CTLA-4 [10] and with human CTLA-4 [11] were 3.52 nM, 4.06 nM and 3.81 nM, respectively.

The values above are taken from patent US12478674 (dated 2025).
